Reference: patent publication US20210403565A1 (BIOATLA, published 2021)

T1: human CTLA4 expressed on the cell surface of CHO cells (human, UniProt P16410 36-223)
T1 construct: whole, on cells; also called CHO-huCTLA4; huCTLA4
T1 sequence (looked up): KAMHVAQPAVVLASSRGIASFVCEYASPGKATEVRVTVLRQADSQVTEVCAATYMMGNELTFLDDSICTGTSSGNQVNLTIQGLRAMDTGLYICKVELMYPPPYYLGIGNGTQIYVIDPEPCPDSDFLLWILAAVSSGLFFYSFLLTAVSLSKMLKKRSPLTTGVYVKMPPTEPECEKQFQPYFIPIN

T2: recombinant human CTLA4 extracellular domain (human, UniProt P16410 36-161)
T2 construct: extracellular domain; also called huCTLA-4
T2 sequence (looked up): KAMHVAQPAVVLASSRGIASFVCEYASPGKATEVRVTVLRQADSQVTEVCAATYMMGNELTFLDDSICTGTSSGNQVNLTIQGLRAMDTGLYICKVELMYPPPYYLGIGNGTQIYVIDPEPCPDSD

T3: cynomolgus CTLA4 expressed on the cell surface of CHO cells (cynomolgus, UniProt G7PL88 36-223)
T3 construct: whole, on cells; also called CHO-cynoCTLA4
T3 sequence: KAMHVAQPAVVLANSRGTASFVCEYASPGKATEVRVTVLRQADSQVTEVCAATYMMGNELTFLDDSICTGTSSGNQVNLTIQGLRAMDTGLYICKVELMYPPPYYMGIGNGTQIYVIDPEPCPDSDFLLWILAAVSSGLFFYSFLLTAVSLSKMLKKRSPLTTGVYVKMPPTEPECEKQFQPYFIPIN

T4: recombinant cynomolgus CTLA4 extracellular domain (cynomolgus, UniProt G7PL88 36-161)
T4 construct: extracellular domain; also called cynoCTLA-4; cynoCTLA4
T4 sequence: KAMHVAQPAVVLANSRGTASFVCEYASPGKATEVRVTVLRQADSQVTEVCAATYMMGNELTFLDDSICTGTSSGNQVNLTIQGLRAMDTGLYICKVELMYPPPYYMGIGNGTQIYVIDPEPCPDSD


Columns and labels:
[1] = biological target: T1, human CTLA4 expressed on the cell …; experiment: FACS competition on CHO-huCTLA4: antibody titrated against a fixed concentration of hB7-1 (hCD80), bound hB7-1 detected, % competition, plateau about 97 %; pH 6.0 per the text; unit from the axis CTLA4 Ab concentration Log(ng/mL)
[2] = biological target: T2, recombinant human CTLA4 extracellular …; experiment: SPR, human CTLA4 ECD immobilised, pH 6.0, run 3
Procedure: (§1) The CTLA4 extracellular domain (human or cynomolgus) was immobilized on the surface of a sensor chip. […] The binding kinetics were calculated using a 1:1 Longmuir model built into the analysis software.

[3] = biological target: T1, human CTLA4 expressed on the cell …; experiment: FACS competition on CHO-huCTLA4: antibody titrated against a fixed concentration of hB7-2 (hCD86), bound hB7-2 detected, % competition, plateaus about 48 to 57 %; pH 6.0 per the text; unit from the axis CTLA4 Ab concentration Log(ng/mL)
[4] = biological target: T2, recombinant human CTLA4 extracellular …; experiment: SPR, human CTLA4 ECD immobilised, pH 7.4, run 1
Procedure: as §1

[5] = biological target: T3, cynomolgus CTLA4 expressed on the cell …; experiment: FACS saturation, CHO-cynoCTLA-4, pH 7.4, MFI, titration up to about log 6.5; reaches about 330000 against about 700000 for Ipi Analogue; no unit in the table, unit from the axis Log Antibodies [ng/ml]
Procedure: (§2) The amount of antibodies bound on the cells was quantified using anti-human IgG antibody conjugated to fluorophores. EC₅₀ values at pH 6.0 and 7.4 for binding to cells were calculated using the nonlinear fit (variable slope, four parameters) model built into GraphPad Prism software (version 7.03). The expression levels of human CTLA4 or cynomolgus CTLA4 on the surface of the CHO cells were determined using a BD QuantiBRITE™ PE kit.
(§3) Finally, saturations of the antibodies on the CHO cells expressing human or cynomolgus CTLA4 at pH 7.4 were also measured by FACS (FIGS. 8A-8B).

[6] = biological target: T4, recombinant cynomolgus CTLA4 …; experiment: SPR, cynomolgus CTLA4 ECD immobilised, pH 6.0, equilibrium fit; SPR, pH 6.0
Procedure: as §1
The KD was calculated by plotting the maximum SPR signal at each concentration against the antibody concentration. Experiments were run in triplicate at each pH.

[7] = biological target: T1, human CTLA4 expressed on the cell …; experiment: FACS, cells expressing human CTLA4, assay pH 6.0, MFI; lot 6972 in Glu buffer, T0; unit from the axis Log[ng/mL]
Procedure: The amount of bound antibodies was quantified using anti-human IgG antibody conjugated to fluorophores. The MFI in each reaction was proportional to the amount of antibodies bound. The EC₅₀ value (in ng/mL) for binding to human CTLA4 on cells was determined by MFI of the singlets population against antibody concentration with a Prism variable slope of four-parameter dose-response curve, which was calculated using the nonlinear fit (variable slope, four parameters) model built into GraphPad Prism software (version 7.03).

[8] = biological target: T3, cynomolgus CTLA4 expressed on the cell …; experiment: FACS on CHO-cynoCTLA4 cells, pH 6.0, mean
Procedure: as §2

[9] = biological target: T2, recombinant human CTLA4 extracellular …; experiment: ELISA, immobilised huCTLA-4, pH 6.0, Jun. 29, 2017
Procedure: EC₅₀ values at pH 6.0 for binding to human CTLA4 were calculated using the nonlinear fit model (variable slope, four parameters) of GraphPad Prism version 7.03.

[10] = biological target: T3, cynomolgus CTLA4 expressed on the cell …; experiment: FACS saturation, CHO-cynoCTLA-4, pH 7.4, MFI, titration up to about log 6.5; at baseline up to about log 4.5, about 100000 at the end, no plateau; no unit in the table, unit from the axis Log Antibodies [ng/ml]
Procedure: as §2, §3

| EC50 [1] [µg/mL] | Kd [2] [nM] | koff [2] [s⁻¹] | kon [2] [M⁻¹ s⁻¹] | EC50 [3] [µg/mL] | Kd [4] [nM] | koff [4] [s⁻¹] | kon [4] [M⁻¹ s⁻¹] | EC50 [5] [µg/mL] | Kd [6] [nM] | EC50 [7] [µg/mL] | EC50 [8] [µg/mL] | EC50 [9] [µg/mL] | EC50 [10] [µg/mL] | Binder |
| --- | --- | --- | --- | --- | --- | --- | --- | --- | --- | --- | --- | --- | --- | --- |
| 0.745 | 0.543 | 0.000598 | 1.1e+06 | 0.592 | 1.39 | 0.00126 | 906000 | 13 | 1.96 | 0.291 | 0.316 | 0.00659 |  | BA-087-05-19 (antibody, V domains shown, Detected with anti-human IgG and a molecular weight of 146 kDa was used in SPR, so it was tested as a whole IgG; also called BA-087-05-019; BA-087-05-19 (# 6972)) VH: EVQLVESGGGLVQPGGSLRLSCAASGFTFSHYTMHWVRQAPGKGLEWVSFISYDGNNKYYADSVKGRFTISRDNSKNTLYLQMNSLRAEDTAVYYCARTGWLGPFDYWGQGTLVTVSS VL: AIQLTQSPSSLSASVGDRVTITCRASQYVGSSYLAWYLQKPGQSPQLLIYGAFSRATGIPARFSGSGSGTEFTLTISSLQSEDFAVYYCQQDGSSPWTFGQGTKVEIK |
| 0.567 | 0.524 | 0.00214 | 4.08e+06 | 0.456 | 52.5 | 0.0284 |  |  | 5.95 |  | 0.403 | 0.00857 | 1650 | BA-087-08-32 (antibody, V domains shown, Detected with anti-human IgG and a molecular weight of 146 kDa was used in SPR, so it was tested as a whole IgG; also called BA-087-08-032; BA-087-08-32 (# 6978)) VH: EVQLVQSGAEVKKPGATVKISCKVSGFTFSHYTMHWIRQSPSRGLEWLGFISYDGNYKYYADSVKGRFTISRDNAKNSLYLQMNSLRAEDTAVYYCARTGWLGPFDYWGQGTLVTVSS VL: EIVMTQSPATLSVSPGERATLSCRASQSVGSSYLAWYQQKPGKAPKLLIYGAFSRATGVPSRFSGSGSGTDFTLTISSLQPEDFATYYCQQDGSSPWTFGQGTKVEIK |
